Data: the supplement of paper PMC10567573

Assay: protein stability index of a GFP-peptide fusion (GPS, HEK-293T) (PSI 1-6); higher = more stable
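Also: lentivirally expressed fusions sorted by FACS into six bins by GFP to DsRed ratio, PSI derived from sequencing read proportions per bin multiplied by bin number.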

YVQEKRDGLKRRQQLEEELLRAKI [RAD54B WT] showed a protein stability index (parent: IOH45968_20, c terminus: a fixed tail appended) of 1.89.

With YQDMIYAVGGRDDTTELSSAERYN [KLHL20 WT] the protein stability index (parent: IOH45628_85, c terminus: a fixed tail appended) was 2.4.

NETGYLSSVECYNLETNEWRYVSS gave a protein stability index (parent: IOH52486_73, c terminus: a fixed tail appended) of 2.24.

With YTGRAPNLDKMADNLLAAADKYAL the protein stability index (parent: IOH45687_44, c terminus: a fixed tail appended) was 2.12.

Protein KASGRFGLLQGTSAETSGGLLICL [SEPHS2 WT] has a protein stability index (parent: IOH46138_60, c terminus: a fixed tail appended) of 2.7.

With FHHIPSTCQRVNGIKVQNGGIVTD the protein stability index (parent: IOH52104_37, c terminus: a fixed tail appended) was 1.8.

Protein YQQIKAGAYDFPSPEWDTVTPEAK [CAMK2B WT] has a protein stability index (parent: IOH45432_38, c terminus: a fixed tail appended) of 3.58.

QRITQEQEKKLSFIEALIQQYQEQ gave a protein stability index (parent: IOH45956_39, c terminus: a fixed tail appended) of 2.31.

In the case of VVGTPCYISPELCEGKPYNQKSDI, the protein stability index (parent: IOH45357_28, c terminus: a fixed tail appended) is reported as 2.69.

For YAHQPRTADEIPMEPGDIIGVAGN, the protein stability index (parent: IOH44218_86, c terminus: a fixed tail appended) was 4.04.

With DVPDLQSVCSCTCYRSQDYGGRSV the protein stability index (parent: IOH45737_49, c terminus: a fixed tail appended) was 1.8.

LNLAMVYRYCCKLNKKLKSYSLSR showed a protein stability index (parent: IOH46617_10, c terminus: a fixed tail appended) of 2.15.

PDDKLTLFCEVSVVQDSVNISGHT showed a protein stability index (parent: IOH45687_26, c terminus: a fixed tail appended) of 2.06.

With YVRDRADLNKDKPVIPAAALAGYT the protein stability index (parent: IOH46473_52, c terminus: a fixed tail appended) was 2.15.

In the case of KTIEELRDKILTATIENNRVILEI, the protein stability index (parent: IOH51951_27, c terminus: a fixed tail appended) is reported as 2.97.

With DGAGRTWQDSDTVKLLVDLELSYG the protein stability index (parent: IOH51997_56, c terminus: a fixed tail appended) was 1.82.

TSSASVTTTSNASGRRTSDVRRP gave a protein stability index (parent: IOH51951_76, c terminus: native) of 2.45.

With AGQEGEDTLRRRLLAPEAGSHPQQ the protein stability index (parent: IOH51997_29, c terminus: a fixed tail appended) was 2.33.

With HHVADAYTSSQKVSPIQIDGAGRT the protein stability index (parent: IOH51997_53, c terminus: a fixed tail appended) was 3.46.

Protein RAGHHPNQYATCRLCGRQVSRGPG has a protein stability index (parent: IOH45853_12, c terminus: a fixed tail appended) of 2.02.

For AKREETKAMESQRAYRFVQGKDWG, the protein stability index (parent: IOH45687_19, c terminus: a fixed tail appended) was 2.71.

Protein LWVQGDIFRSKLKNRPSSEGSINK has a protein stability index (parent: IOH46617_56, c terminus: a fixed tail appended) of 2.28.

In the case of ANPYWTSRGSSVSMSGGRFRCPTC, the protein stability index (parent: IOH45956_10, c terminus: a fixed tail appended) is reported as 1.99.

IYPVWTYSYLVLLFPVFLATDYLR showed a protein stability index (parent: IOH52104_13, c terminus: a fixed tail appended) of 2.89.

Work on YGSFHQQYWLDGKIIAVGVIDILP yielded a protein stability index (parent: IOH45551_57, c terminus: a fixed tail appended) of 2.33.

In the case of YTFGSNQHGQLGTNTRRGSRAPCK, the protein stability index (parent: IOH45357_98, c terminus: a fixed tail appended) is reported as 3.79.

Protein FQFASIDVAGNLDYKALSYVITHG has a protein stability index (parent: IOH44370_25, c terminus: a fixed tail appended) of 2.42.

Protein TPGIDLTRVLAEMREQYEAMAERN has a protein stability index (parent: IOH51951_45, c terminus: a fixed tail appended) of 3.68.

With YPSYKVREKIETVKYPTYPEAEK the protein stability index (parent: IOH44218_94, c terminus: native) was 4.2.

In the case of QVPVVDFQAELRQAFLAETPRGG [SNURF WT], the protein stability index (parent: IOH45840_9, c terminus: native) is reported as 2.99.

QEKKLSFIEALIQQYQEQLDKSTK gave a protein stability index (parent: IOH45956_40, c terminus: a fixed tail appended) of 2.57.

VTIKHVACGDFFTACLTDRGIIMT showed a protein stability index (parent: IOH45357_66, c terminus: a fixed tail appended) of 2.6.

With DVAGNLDYKALSYVITHGEEKEE the protein stability index (parent: IOH44370_26, c terminus: native) was 2.21.

YGGGLGGGFGGGFAGGFVDFGACD showed a protein stability index (parent: IOH51951_13, c terminus: a fixed tail appended) of 1.83.

Work on FQGSMRIFTKKLPHPDLPAEEKEQ yielded a protein stability index (parent: IOH45672_59, c terminus: a fixed tail appended) of 2.02.

In the case of DYFPSEDFYRCGYCKNESGSRSNG, the protein stability index (parent: IOH45551_3, c terminus: a fixed tail appended) is reported as 2.1.

Work on NWLGRPSKVLSLQDLCCRTIVSCT [RAB40A WT] yielded a protein stability index (parent: IOH45721_31, c terminus: a fixed tail appended) of 2.45.

With CFITLTTIGFGDYVALQTKGALQK the protein stability index (parent: IOH45737_33, c terminus: a fixed tail appended) was 2.94.

SLARLQQLLFVIFLLLYLFTLGTN [OR10K2 WT] showed a protein stability index (parent: IOH46300_4, c terminus: a fixed tail appended) of 2.15.

FSEPSFITESYQTLHPISSEELLS gave a protein stability index (parent: IOH46473_30, c terminus: a fixed tail appended) of 1.94.

Protein WLYCYDPVMDVWARKQDMNTKRAI has a protein stability index (parent: IOH52486_82, c terminus: a fixed tail appended) of 1.93.

Work on YKYCDHENAAFKDVALVLTVLLEE yielded a protein stability index (parent: IOH51997_64, c terminus: a fixed tail appended) of 2.27.

Work on TLSEAYIQIWKRRDNDETNQQGA yielded a protein stability index (parent: IOH45672_93, c terminus: native) of 2.22.

GPHPKSKIENGYPLHAPEAYFPYF gave a protein stability index (parent: IOH46617_33, c terminus: a fixed tail appended) of 2.25.

With FVEKNPTIVNFPITNVDLREYLSE the protein stability index (parent: IOH45672_78, c terminus: a fixed tail appended) was 1.94.

FHLAPARAGHHPNQYATCRLCGRQ showed a protein stability index (parent: IOH45853_11, c terminus: a fixed tail appended) of 1.84.

FASLRPSEPFLTPYLLGPDKNLTE showed a protein stability index (parent: IOH52104_8, c terminus: a fixed tail appended) of 2.

With ITDSYPVVKRREGPAGHSKGELAP [POLD4 WT] the protein stability index (parent: IOH45937_2, c terminus: a fixed tail appended) was 2.96.

YVIGGRNETGYLSSVECYNLETNE showed a protein stability index (parent: IOH52486_72, c terminus: a fixed tail appended) of 1.96.

In the case of SPGHSSAGQEGEDTLRRRLLAPEA, the protein stability index (parent: IOH51997_28, c terminus: a fixed tail appended) is reported as 4.18.

For KLLVVDRTRRLGNMKNGANDVKHH [PRKX WT], the protein stability index (parent: IOH45425_47, c terminus: a fixed tail appended) was 3.15.

In the case of YTSSQKVSPIQIDGAGRTWQDSDT, the protein stability index (parent: IOH51997_54, c terminus: a fixed tail appended) is reported as 3.33.

Work on FRCPTCRHEVIMDRHGVYGLQRNL yielded a protein stability index (parent: IOH45956_13, c terminus: a fixed tail appended) of 1.95.
